In patent US20130210709A1 (ANCHOR THERAPEUTICS, published 2013):
Ends that are not written are not given here. * marks the point of attachment. Palmitoyl = CCCCCCCCCCCCCCCC(=O)*

B1: CXCR4 i1 loop compound 150 (peptide)
peptide: Palmitoyl-MGYQKKLRSMTDAYRL-NH2
SMILES: CCCCCCCCCCCCCCCC(=O)N[C@@H](CCSC)C(=O)NCC(=O)N[C@@H](Cc1ccc(O)cc1)C(=O)N[C@@H](CCC(N)=O)C(=O)N[C@@H](CCCCN)C(=O)N[C@@H](CCCCN)C(=O)N[C@@H](CC(C)C)C(=O)N[C@@H](CCCNC(=N)N)C(=O)N[C@@H](CO)C(=O)N[C@@H](CCSC)C(=O)N[C@H](C(=O)N[C@@H](CC(=O)O)C(=O)N[C@@H](C)C(=O)N[C@@H](Cc1ccc(O)cc1)C(=O)N[C@@H](CCCNC(=N)N)C(=O)N[C@@H](CC(C)C)C(N)=O)[C@@H](C)O
B2: CXCR4 i1 loop compound 151 (peptide)
peptide: Palmitoyl-MGYQKKLRSMTDKARL-NH2
SMILES: CCCCCCCCCCCCCCCC(=O)N[C@@H](CCSC)C(=O)NCC(=O)N[C@@H](Cc1ccc(O)cc1)C(=O)N[C@@H](CCC(N)=O)C(=O)N[C@@H](CCCCN)C(=O)N[C@@H](CCCCN)C(=O)N[C@@H](CC(C)C)C(=O)N[C@@H](CCCNC(=N)N)C(=O)N[C@@H](CO)C(=O)N[C@@H](CCSC)C(=O)N[C@H](C(=O)N[C@@H](CC(=O)O)C(=O)N[C@@H](CCCCN)C(=O)N[C@@H](C)C(=O)N[C@@H](CCCNC(=N)N)C(=O)N[C@@H](CC(C)C)C(N)=O)[C@@H](C)O
B3: CXCR4 i1 loop compound 149 (peptide)
peptide: Palmitoyl-MGYQKKLRSMTAKYRL-NH2
SMILES: CCCCCCCCCCCCCCCC(=O)N[C@@H](CCSC)C(=O)NCC(=O)N[C@@H](Cc1ccc(O)cc1)C(=O)N[C@@H](CCC(N)=O)C(=O)N[C@@H](CCCCN)C(=O)N[C@@H](CCCCN)C(=O)N[C@@H](CC(C)C)C(=O)N[C@@H](CCCNC(=N)N)C(=O)N[C@@H](CO)C(=O)N[C@@H](CCSC)C(=O)N[C@H](C(=O)N[C@@H](C)C(=O)N[C@@H](CCCCN)C(=O)N[C@@H](Cc1ccc(O)cc1)C(=O)N[C@@H](CCCNC(=N)N)C(=O)N[C@@H](CC(C)C)C(N)=O)[C@@H](C)O
B4: CXCR4 i1 loop compound 148 (peptide)
peptide: Palmitoyl-MGYQKKLRSMADKYRL-NH2
SMILES: CCCCCCCCCCCCCCCC(=O)N[C@@H](CCSC)C(=O)NCC(=O)N[C@@H](Cc1ccc(O)cc1)C(=O)N[C@@H](CCC(N)=O)C(=O)N[C@@H](CCCCN)C(=O)N[C@@H](CCCCN)C(=O)N[C@@H](CC(C)C)C(=O)N[C@@H](CCCNC(=N)N)C(=O)N[C@@H](CO)C(=O)N[C@@H](CCSC)C(=O)N[C@@H](C)C(=O)N[C@@H](CC(=O)O)C(=O)N[C@@H](CCCCN)C(=O)N[C@@H](Cc1ccc(O)cc1)C(=O)N[C@@H](CCCNC(=N)N)C(=O)N[C@@H](CC(C)C)C(N)=O
B5: CXCR4 i1 loop compound 147 (peptide)
peptide: Palmitoyl-MGYQKKLRSATDKYRL-NH2
SMILES: CCCCCCCCCCCCCCCC(=O)N[C@@H](CCSC)C(=O)NCC(=O)N[C@@H](Cc1ccc(O)cc1)C(=O)N[C@@H](CCC(N)=O)C(=O)N[C@@H](CCCCN)C(=O)N[C@@H](CCCCN)C(=O)N[C@@H](CC(C)C)C(=O)N[C@@H](CCCNC(=N)N)C(=O)N[C@@H](CO)C(=O)N[C@@H](C)C(=O)N[C@H](C(=O)N[C@@H](CC(=O)O)C(=O)N[C@@H](CCCCN)C(=O)N[C@@H](Cc1ccc(O)cc1)C(=O)N[C@@H](CCCNC(=N)N)C(=O)N[C@@H](CC(C)C)C(N)=O)[C@@H](C)O
B6: CXCR4 i1 loop compound 146 (peptide)
peptide: Palmitoyl-MGYQKKLRAMTDKYRL-NH2
SMILES: CCCCCCCCCCCCCCCC(=O)N[C@@H](CCSC)C(=O)NCC(=O)N[C@@H](Cc1ccc(O)cc1)C(=O)N[C@@H](CCC(N)=O)C(=O)N[C@@H](CCCCN)C(=O)N[C@@H](CCCCN)C(=O)N[C@@H](CC(C)C)C(=O)N[C@@H](CCCNC(=N)N)C(=O)N[C@@H](C)C(=O)N[C@@H](CCSC)C(=O)N[C@H](C(=O)N[C@@H](CC(=O)O)C(=O)N[C@@H](CCCCN)C(=O)N[C@@H](Cc1ccc(O)cc1)C(=O)N[C@@H](CCCNC(=N)N)C(=O)N[C@@H](CC(C)C)C(N)=O)[C@@H](C)O
B7: CXCR4 i3 loop compound 104 (peptide)
peptide: Palmitoyl-IIISKLSHSKGHQKRKALKT
modifications: not fully specified (C-terminus); also: dual lipid, second lipid position not given here
B8: CXCR4 i3 loop compound 99 (peptide)
peptide: Palmitoyl-HSKGHQKRKALKTTV-NH2
SMILES: CCCCCCCCCCCCCCCC(=O)N[C@@H](Cc1c[nH]cn1)C(=O)N[C@@H](CO)C(=O)N[C@@H](CCCCN)C(=O)NCC(=O)N[C@@H](Cc1c[nH]cn1)C(=O)N[C@@H](CCC(N)=O)C(=O)N[C@@H](CCCCN)C(=O)N[C@@H](CCCNC(=N)N)C(=O)N[C@@H](CCCCN)C(=O)N[C@@H](C)C(=O)N[C@@H](CC(C)C)C(=O)N[C@@H](CCCCN)C(=O)N[C@H](C(=O)N[C@H](C(=O)N[C@H](C(N)=O)C(C)C)[C@@H](C)O)[C@@H](C)O
B9: CXCR4 i3 loop compound 100 (peptide)
peptide: Palmitoyl-HSKGHQKRKALKTTVI-NH2
SMILES: CCCCCCCCCCCCCCCC(=O)N[C@@H](Cc1c[nH]cn1)C(=O)N[C@@H](CO)C(=O)N[C@@H](CCCCN)C(=O)NCC(=O)N[C@@H](Cc1c[nH]cn1)C(=O)N[C@@H](CCC(N)=O)C(=O)N[C@@H](CCCCN)C(=O)N[C@@H](CCCNC(=N)N)C(=O)N[C@@H](CCCCN)C(=O)N[C@@H](C)C(=O)N[C@@H](CC(C)C)C(=O)N[C@@H](CCCCN)C(=O)N[C@H](C(=O)N[C@H](C(=O)N[C@H](C(=O)N[C@H](C(N)=O)[C@@H](C)CC)C(C)C)[C@@H](C)O)[C@@H](C)O
B10: CXCR4 i3 loop compound 103 (peptide)
peptide: IIISKLSHSKGHQKRKALKT-NH2
modifications: not fully specified (N-terminus); also: dual lipid, backbone lipid not given here
B11: CXCR4 i3 loop compound 94 (peptide)
peptide: Palmitoyl-KLSHSKGHQKRKA-NH2
SMILES: CCCCCCCCCCCCCCCC(=O)N[C@@H](CCCCN)C(=O)N[C@@H](CC(C)C)C(=O)N[C@@H](CO)C(=O)N[C@@H](Cc1c[nH]cn1)C(=O)N[C@@H](CO)C(=O)N[C@@H](CCCCN)C(=O)NCC(=O)N[C@@H](Cc1c[nH]cn1)C(=O)N[C@@H](CCC(N)=O)C(=O)N[C@@H](CCCCN)C(=O)N[C@@H](CCCNC(=N)N)C(=O)N[C@@H](CCCCN)C(=O)N[C@@H](C)C(N)=O
B12: CXCR4 i3 loop compound 105 (peptide)
peptide: KLSHSKGHQKRKALKTTVIL-NH2
modifications: not fully specified (N-terminus); also: dual lipid, backbone lipid not given here
B13: CXCR4 i3 loop compound 97 (peptide)
peptide: Palmitoyl-HSKGHQKRKALKT-NH2
SMILES: CCCCCCCCCCCCCCCC(=O)N[C@@H](Cc1c[nH]cn1)C(=O)N[C@@H](CO)C(=O)N[C@@H](CCCCN)C(=O)NCC(=O)N[C@@H](Cc1c[nH]cn1)C(=O)N[C@@H](CCC(N)=O)C(=O)N[C@@H](CCCCN)C(=O)N[C@@H](CCCNC(=N)N)C(=O)N[C@@H](CCCCN)C(=O)N[C@@H](C)C(=O)N[C@@H](CC(C)C)C(=O)N[C@@H](CCCCN)C(=O)N[C@H](C(N)=O)[C@@H](C)O
B14: CXCR4 i3 loop compound 101 (peptide)
peptide: Palmitoyl-SKLSHSKGHQKRKALK-NH2
SMILES: CCCCCCCCCCCCCCCC(=O)N[C@@H](CO)C(=O)N[C@@H](CCCCN)C(=O)N[C@@H](CC(C)C)C(=O)N[C@@H](CO)C(=O)N[C@@H](Cc1c[nH]cn1)C(=O)N[C@@H](CO)C(=O)N[C@@H](CCCCN)C(=O)NCC(=O)N[C@@H](Cc1c[nH]cn1)C(=O)N[C@@H](CCC(N)=O)C(=O)N[C@@H](CCCCN)C(=O)N[C@@H](CCCNC(=N)N)C(=O)N[C@@H](CCCCN)C(=O)N[C@@H](C)C(=O)N[C@@H](CC(C)C)C(=O)N[C@@H](CCCCN)C(N)=O
B15: CXCR4 i3 loop compound 96 (peptide)
peptide: Palmitoyl-SHSKGHQKRKALK-NH2
SMILES: CCCCCCCCCCCCCCCC(=O)N[C@@H](CO)C(=O)N[C@@H](Cc1c[nH]cn1)C(=O)N[C@@H](CO)C(=O)N[C@@H](CCCCN)C(=O)NCC(=O)N[C@@H](Cc1c[nH]cn1)C(=O)N[C@@H](CCC(N)=O)C(=O)N[C@@H](CCCCN)C(=O)N[C@@H](CCCNC(=N)N)C(=O)N[C@@H](CCCCN)C(=O)N[C@@H](C)C(=O)N[C@@H](CC(C)C)C(=O)N[C@@H](CCCCN)C(N)=O
B16: CXCR4 i3 loop compound 95 (peptide)
peptide: Palmitoyl-LSHSKGHQKRKALK-NH2
SMILES: CCCCCCCCCCCCCCCC(=O)N[C@@H](CC(C)C)C(=O)N[C@@H](CO)C(=O)N[C@@H](Cc1c[nH]cn1)C(=O)N[C@@H](CO)C(=O)N[C@@H](CCCCN)C(=O)NCC(=O)N[C@@H](Cc1c[nH]cn1)C(=O)N[C@@H](CCC(N)=O)C(=O)N[C@@H](CCCCN)C(=O)N[C@@H](CCCNC(=N)N)C(=O)N[C@@H](CCCCN)C(=O)N[C@@H](C)C(=O)N[C@@H](CC(C)C)C(=O)N[C@@H](CCCCN)C(N)=O

What follows are binders tested against T1, CXCR4 receptor (human, UniProt P61073 1-352) (assay: cell-based or functional assay).
T1 sequence (P61073 whole entry): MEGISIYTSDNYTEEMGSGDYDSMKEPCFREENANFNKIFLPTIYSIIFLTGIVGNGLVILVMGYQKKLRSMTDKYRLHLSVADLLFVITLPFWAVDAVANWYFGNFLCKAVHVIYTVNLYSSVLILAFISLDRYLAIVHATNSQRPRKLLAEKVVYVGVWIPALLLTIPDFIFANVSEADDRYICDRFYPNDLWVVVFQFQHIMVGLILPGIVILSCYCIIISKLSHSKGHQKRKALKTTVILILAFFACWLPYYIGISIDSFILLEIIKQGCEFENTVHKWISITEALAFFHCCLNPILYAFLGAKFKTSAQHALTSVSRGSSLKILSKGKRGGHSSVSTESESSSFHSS

Row | Binder | IC50 (nM), calcium flux, CCRF-CEM [nM]
1 | B1 | 313
2 | B2 | > 10000
3 | B3 | 126
4 | B4 | 298
5 | B5 | 54
6 | B6 | 170

Target: T1, CXCR4 receptor
Assay: cell-based or functional assay
Remark: another data set of the same source

Row | Binder | AUC (% of vehicle), chemotaxis, CEM, 1.0 uM | Max (% of vehicle), chemotaxis, CEM, 1.0 uM | Peak Ratio, chemotaxis, CEM, 1.0 uM
7 | B7 | 36.4 % of vehicle | 56.4 % of vehicle | 0.2
8 | B8 | 45 % of vehicle | 64.5 % of vehicle | 0.2
9 | B9 | 49.3 % of vehicle | 49.8 % of vehicle | 0.04
10 | B10 | 26.3 % of vehicle | 24.4 % of vehicle | 1
11 | B11 | 65.3 % of vehicle | 80.5 % of vehicle | 1
12 | B12 | 23.8 % of vehicle | 42.9 % of vehicle | 0.2
13 | B13 | 48.9 % of vehicle | 54.7 % of vehicle | 0.2
14 | B14 | 75.5 % of vehicle | 74.9 % of vehicle | 1
15 | B15 | 34.2 % of vehicle | 63.1 % of vehicle | 1
16 | B16 | 77.5 % of vehicle | 92.1 % of vehicle | 1
